Measurements: PMC12201654, “Circovirus Rep evades immune restriction by disrupting cGAS oligomerization and phase separation” (PLOS Pathogens, 2025)

Columns and labels:
[1] = molecular target: the molecule itself; assay: cross-linking; recombinant pcGAS (5 ug), bound to ISD45 dsDNA, alone or with recombinant Rep proteins (5, 10, 15 ug) in cGAMP synthesis buffer (20 mM HEPES pH 7.5, 5 mM MgCl2, 2 mM ATP, 2 mM GTP), 25°C 15 min, then DSS 0.5 mM for 10 min; non-reducing loading buffer, immunoblot
PCV2a Rep = molecular target: T1, PCV2a Rep (Porcine circovirus 2a, UniProt Q77Q74 1-314); assay: MST; Pull-down: IP lysis buffer 4 h at 4 C (lysates) or NP-40 buffer 6 h at 4 C (recombinant), biotin-HSV60 40 ug/mL; MST buffer not given; phase separation 50-300 mM NaCl; conditions: protein: recombinant; tags: C-terminal Myc; His6-SUMO removed per Methods; label: Cy5; blunt
T1 sequence: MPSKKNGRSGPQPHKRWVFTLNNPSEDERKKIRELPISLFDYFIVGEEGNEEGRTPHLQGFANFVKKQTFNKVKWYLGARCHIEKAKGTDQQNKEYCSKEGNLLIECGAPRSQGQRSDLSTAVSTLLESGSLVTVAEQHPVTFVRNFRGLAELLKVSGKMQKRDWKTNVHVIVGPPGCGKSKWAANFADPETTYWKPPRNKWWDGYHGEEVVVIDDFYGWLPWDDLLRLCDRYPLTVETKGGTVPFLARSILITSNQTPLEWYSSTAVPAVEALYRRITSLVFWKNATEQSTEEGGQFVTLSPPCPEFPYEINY

pcGAS full length = molecular target: T2, pcGAS full length (pig (porcine), UniProt I3LM39 1-495); assay: as above; conditions: protein: recombinant; label: Cy5; blunt
T2 sequence: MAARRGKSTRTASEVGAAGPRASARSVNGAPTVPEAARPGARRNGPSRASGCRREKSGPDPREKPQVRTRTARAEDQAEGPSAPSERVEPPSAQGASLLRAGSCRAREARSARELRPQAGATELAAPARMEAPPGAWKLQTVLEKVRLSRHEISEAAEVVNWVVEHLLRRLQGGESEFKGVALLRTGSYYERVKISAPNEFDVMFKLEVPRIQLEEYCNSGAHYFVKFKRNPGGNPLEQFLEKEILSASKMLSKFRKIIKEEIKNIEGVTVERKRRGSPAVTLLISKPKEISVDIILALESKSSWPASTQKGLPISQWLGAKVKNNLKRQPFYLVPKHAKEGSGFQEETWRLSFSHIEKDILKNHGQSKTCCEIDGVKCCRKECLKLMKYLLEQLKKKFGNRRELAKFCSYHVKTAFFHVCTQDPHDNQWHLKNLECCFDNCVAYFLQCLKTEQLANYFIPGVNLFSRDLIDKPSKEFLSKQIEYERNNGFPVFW

SUMO-PCV3 Rep-Myc = SUMO-PCV3 Rep-Myc (Porcine circovirus 3, UniProt A0ACM8RHE8 1-296); assay: pull-down; Pull-down: IP lysis buffer 4 h at 4 C (lysates) or NP-40 buffer 6 h at 4 C (recombinant), biotin-HSV60 40 ug/mL; MST buffer not given; phase separation 50-300 mM NaCl; conditions: protein: recombinant; tags: His6-SUMO, C-terminal Myc; label: 5'-biotin; blunt
SUMO-PCV4 Rep-Myc = molecular target: T3, SUMO-PCV4 Rep-Myc (Porcine circovirus 4, UniProt A0A7M4CFI7 1-296); assay: as above; conditions: protein: recombinant; tags: His6-SUMO, C-terminal Myc; label: 5'-biotin; blunt
T3 sequence: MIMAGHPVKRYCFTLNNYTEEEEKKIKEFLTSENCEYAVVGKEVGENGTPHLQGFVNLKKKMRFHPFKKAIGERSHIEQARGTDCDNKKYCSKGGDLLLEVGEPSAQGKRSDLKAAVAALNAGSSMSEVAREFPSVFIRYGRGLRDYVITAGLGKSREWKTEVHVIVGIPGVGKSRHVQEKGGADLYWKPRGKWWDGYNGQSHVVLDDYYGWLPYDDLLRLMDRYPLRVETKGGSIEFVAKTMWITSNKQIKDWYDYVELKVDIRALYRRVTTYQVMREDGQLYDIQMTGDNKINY

B1: porcine cGAS (pcGAS), recombinant full-length protein (natural protein)
chain: T2 sequence
notes: cyclic GMP-AMP synthase (cGAS), porcine, full length; identifier not given; also called porcine cyclic GMP-AMP synthase; pcGAS full length; source: recombinant protein, stored in our laboratory
Q: Does B1 bind [1]?
A: binds

B2: Cy5-HSV60 (dsDNA)
DNA 1: TAAGACACGATGCGATAAAATCTGTTTGTAAAATTTATTAAGGGTACAAATTGCCCTAGC
DNA 2: GCTAGGGCAATTTGTACCCTTAATAAATTTTACAAACAGATTTTATCGCATCGTGTCTTA
Q: For B2, which Kd (PCV2a Rep) is on record?
A: 11.1 µM

Q: What about the Kd (pcGAS full length) of the same binder?
A: 0.68 µM

B3: biotin-HSV60 (dsDNA)
DNA 1: B2 DNA 1
DNA 2: B2 DNA 2
Q: Does B3 bind (SUMO-PCV3 Rep-Myc)?
A: binds

Q: Does B3 bind (SUMO-PCV4 Rep-Myc)?
A: binds
